B1: VMI5 peptide SVSVGMKPSPRP (peptide)
peptide: SVSVGMKPSPRP
notes: 12-mer with PXP motif; also called ID; NO: 9
B2: VMI7 peptide SNQGGSPLPRSV (peptide)
peptide: SNQGGSPLPRSV
notes: 12-mer with PXP motif; also called VM17; ID; NO: 11
B3: VMI2 peptide WPTNPTTVPVPS (peptide)
peptide: WPTNPTTVPVPS
notes: 12-mer with PXP motif from the Ph.D.-12 library; also called ID; NO: 6
B4: VMI10 peptide YPLPHPMWSMLP (peptide)
peptide: YPLPHPMWSMLP
notes: 12-mer with PXP motif from the Ph.D.-12 library; also called ID; NO: 14
B5: VMI11 peptide TMTPPPTSVRGT (peptide)
peptide: TMTPPPTSVRGT
notes: 12-mer with PXP motif from the Ph.D.-12 library; also called ID; NO: 15
B6: VMI4 peptide SLHWPVSHPPPP (peptide)
peptide: SLHWPVSHPPPP
notes: 12-mer with PXP motif from the Ph.D.-12 library; also called ID; NO: 8
B7: VMI8 peptide SEPHLPFPVLPH (peptide)
peptide: SEPHLPFPVLPH
notes: 12-mer with PXP motif from the Ph.D.-12 library; also called ID; NO: 12
B8: VMI16 peptide SPYPSWSTPAGR (peptide)
peptide: SPYPSWSTPAGR
notes: 12-mer with PXP motif from the Ph.D.-12 library; also called ID; NO: 20
B9: VMI9 peptide LPLPAPSFHRTT (peptide)
peptide: LPLPAPSFHRTT
notes: 12-mer with PXP motif; also called ID; NO: 13
B10: VMI1 peptide SNFASITTPRPH (peptide)
peptide: SNFASITTPRPH
notes: 12-mer with PXP motif from the Ph.D.-12 library; also called ID; NO: 5
B11: VMI13 peptide GPPPHHRDYHGP (peptide)
peptide: GPPPHHRDYHGP
notes: 12-mer with PXP motif from the Ph.D.-12 library; also called ID; NO: 17
B12: VMI14 peptide YPAPIKVLLPNS (peptide)
peptide: YPAPIKVLLPNS
notes: 12-mer with PXP motif from the Ph.D.-12 library; also called ID; NO: 18
B13: VMI6 peptide WHSQRLSPVPPA (peptide)
peptide: WHSQRLSPVPPA
notes: 12-mer with PXP motif from the Ph.D.-12 library; also called ID; NO: 10
B14: VMI15 peptide SPYPMALFPLHN (peptide)
peptide: SPYPMALFPLHN
notes: 12-mer with PXP motif from the Ph.D.-12 library; also called ID; NO: 19
B15: VMI12 peptide TPLPTIRGDTGT (peptide)
peptide: TPLPTIRGDTGT
notes: 12-mer with PXP motif from the Ph.D.-12 library; also called ID; NO: 16

target: T1, GST-Vif fusion protein (HIV-1 (HIV-1NL4-3), UniProt P12504 1-192); experiment: phage peptide display, phage ELISA on coated GST-Vif
T1 construct: range 1-192; Expressed from pGEX in BL21 E. coli, held on glutathione-agarose beads or coated on ELISA plates; also called purified HIV-1 Vif protein; not shown: glutathione-S-transferase encoded by the pGEX vector
T1 sequence (P12504 whole entry, the tested form may be a part): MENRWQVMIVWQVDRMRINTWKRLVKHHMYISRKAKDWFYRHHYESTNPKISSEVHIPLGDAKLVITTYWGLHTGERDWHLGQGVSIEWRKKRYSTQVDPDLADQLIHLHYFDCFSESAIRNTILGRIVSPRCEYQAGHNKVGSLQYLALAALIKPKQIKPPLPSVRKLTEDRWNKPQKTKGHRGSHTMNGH

Question: Does B1 bind?
Answer: binds

Question: Does B2 bind?
Answer: binds

Question: Does B3 bind?
Answer: binds

Question: Does B4 bind?
Answer: binds

Question: Does B5 bind?
Answer: binds

Question: Does B6 bind?
Answer: binds

Question: Does B7 bind?
Answer: binds

Question: Does B8 bind?
Answer: binds

Question: Does B9 bind?
Answer: binds

Question: Does B10 bind?
Answer: binds

Question: Does B11 bind?
Answer: binds

Question: Does B12 bind?
Answer: binds

Question: Does B13 bind?
Answer: binds

Question: Does B14 bind?
Answer: binds

Question: Does B15 bind?
Answer: binds

Source: US20040086512A1 (THOMAS JEFFERSON UNIVERSITY, published 2004)
